T1: DmGen (1-518)-His (Drosophila melanogaster, UniProt Q9VRJ0 1-518)
T1 sequence: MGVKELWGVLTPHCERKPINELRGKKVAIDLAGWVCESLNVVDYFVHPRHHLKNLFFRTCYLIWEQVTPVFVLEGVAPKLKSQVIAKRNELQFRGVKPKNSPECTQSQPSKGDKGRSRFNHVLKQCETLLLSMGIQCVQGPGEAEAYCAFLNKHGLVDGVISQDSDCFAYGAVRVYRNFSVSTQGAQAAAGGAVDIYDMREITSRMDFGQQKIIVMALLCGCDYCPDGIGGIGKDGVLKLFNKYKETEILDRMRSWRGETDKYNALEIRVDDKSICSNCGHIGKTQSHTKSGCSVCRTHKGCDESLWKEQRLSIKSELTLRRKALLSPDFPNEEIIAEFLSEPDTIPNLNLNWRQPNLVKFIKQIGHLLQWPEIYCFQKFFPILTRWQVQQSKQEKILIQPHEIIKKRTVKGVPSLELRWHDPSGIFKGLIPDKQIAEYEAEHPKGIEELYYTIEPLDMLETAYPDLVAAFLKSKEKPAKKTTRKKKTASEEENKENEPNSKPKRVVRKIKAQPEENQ

B1: truncated DmGen (1-518 aa) with C-terminal hexahistidine tag (enzyme, Drosophila, UniProt Q9VRJ0 1-518, looked up)
chain: T1 sequence
B2: linear dsDNA (oligos 888/888rc) (dsDNA)
DNA 1: GACGCTGCCGAATTCTGGCGTTAGGAGATACCGATAAGCTTCGGCTTAA
DNA 2: TTAAGCCGAAGCTTATCGGTATCTCCTAACGCCAGAATTCGGCAGCGTC

What was measured:
SEC-MALS = target: the molecule itself; test: SEC-MALS
atomic force microscopy = target: the molecule itself; test: atomic force microscopy
DmGen (1-518)-His = target: T1, DmGen (1-518)-His; test: EMSA

| Binder | stoichiometry N (SEC-MALS) | Kd (atomic force microscopy) | binding result (DmGen (1-518)-His) |
| --- | --- | --- | --- |
| B1 | 2 | ~100 nM |  |
| B2 |  |  | no binding |

— article PMC5435919 (Nucleic Acids Research, 2017)
